What all share (assay): MST; NT-647-labelled protein kept constant (250 nM native and oxidized α-synuclein, 125 nM native enolase, 25 nM oxidized enolase), unlabelled h20S titrated in 16 dilutions from 1965 to 0.06 nM; 60 min (enolase) or 30 min (α-synuclein) at 22 °C; 20 mM Tris-HCl pH 7.2, 10% glycerol, 0.5 mM DTT, 0.5 mM NaN3, 0.125 mM EDTA, 100 mM NaCl; Hill fit, three independent experiments
One experiment has as its target oxidized α-synuclein (UniProt P37840).
In a further experiment the target is α-synuclein (UniProt P37840).
Experiment [1] has as its target oxidized human enolase 2 (human) (UniProt P09104).

Take “human 20S proteasome (from UniProt P25786 4-241; P28066 8-241; P28072 35-239; Q99436 44-277; P28074 60-263) (complex)”: the EC50 – broadly, the midpoint of the concentration-response curve – was found to be 67.6 nM in the experiment with oxidized α-synuclein, 32.3 nM with α-synuclein and 87.8 nM in experiment [1].

For the origin of these results see article PMC9221443, “Peptidomimetics Based on C-Terminus of Blm10 Stimulate Human 20S Proteasome Activity and Promote Degradation of Proteins” (Biomolecules, 2022).
